Source: patent publication US20230295336A1 (INHIBRX, published 2023)
Substitutions are numbered along the chain they refer to. Names and notes keep the numbering of the source.

T1: B7H3 (CD276) (human, UniProt Q5ZPR3 29-534)
T1 construct: whole, on cells
T1 sequence (looked up): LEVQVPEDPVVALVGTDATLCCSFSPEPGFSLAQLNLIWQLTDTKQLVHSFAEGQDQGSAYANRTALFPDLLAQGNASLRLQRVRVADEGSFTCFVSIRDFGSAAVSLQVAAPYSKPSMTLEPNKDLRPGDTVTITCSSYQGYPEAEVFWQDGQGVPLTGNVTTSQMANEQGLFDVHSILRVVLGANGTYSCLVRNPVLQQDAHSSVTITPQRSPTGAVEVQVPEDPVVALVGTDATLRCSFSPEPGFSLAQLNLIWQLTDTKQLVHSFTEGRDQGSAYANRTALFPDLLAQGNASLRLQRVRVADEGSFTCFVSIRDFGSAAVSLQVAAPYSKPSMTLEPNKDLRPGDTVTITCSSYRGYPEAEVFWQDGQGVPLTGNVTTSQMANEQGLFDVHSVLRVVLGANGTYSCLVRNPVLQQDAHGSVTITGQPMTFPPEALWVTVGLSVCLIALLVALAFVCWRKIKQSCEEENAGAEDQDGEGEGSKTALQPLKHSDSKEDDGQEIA

B1: cx6081 (bispecific antibody)
chain 1: EVQLVESGGGEVQPGGSLRLSCAASGFSFSSNVMMWVRQAPGKGLEWVSTIYSSGTGTFYAESVKGRFTISRDNAKNTLYLQMSSLRPEDTAVYYCATSGPVRGWGPRSQGTLVTVKPPGGGGDKTHTCPPCPAPPVAGPSVFLFPPKPKDTLMISRTPEVTCVVVDVKHEDPEVKFNWYVDGVEVHNAKTKPREEEYNSTYRVVSVLTVLHQDWLNGKEYKCKVSNKALPAPIEKTISKAKGQPREPQVYTLPPSREEMTKNQVSLTCDVSGFYPSDIAVEWESDGQPENNYKTTPPVLDSDGSFFLYSKLTVDKSRWEQGDVFSCSVMHEALHNHYTQKSLSLSPGKGGGGSGGGGSGGGGSEVQLVESGGGLVQPGGSLRLSCAASGFTFNTYAMNWVRQAPGKCLEWVARIRSKYNNYATYYADSVKGRFTISRDDAKNTLYLQMSSLRAEDTAVYYCVRHGNFGNSYVSWFAYWGQGTLVTVKP
chain 2: EVQLVESGGGEVQPGGSLRLSCAASGFSFSSNVMMWVRQAPGKGLEWVSTIYSSGTGTFYAESVKGRFTISRDNAKNTLYLQMSSLRPEDTAVYYCATSGPVRGWGPRSQGTLVTVKPPGGGGDKTHTCPPCPAPPVAGPSVFLFPPKPKDTLMISRTPEVTCVVVDVKHEDPEVKFNWYVDGVEVHNAKTKPREEQYNSTYRVVSVLTVLHQDWLNGKEYKCKVSNKALPAPIEKTISKAKGQPREPQVYTLPPSREQMTKNQVKLTCLVKGFYPSDIAVEWESNGQPENNYKTTPPVLDSDGSFFLYSKLTVDKSRWQQGNVFSCSVMHEALHNHYTQKSLSLSPGKGGGGSGGGGSGGGGSQAVVTQEPSLTVSPGGTVTLTCGSSTGAVTTSNYANWVQQKPGQAFRGLIGGTNKRAPGVPARFSGSLLGGKAALTISGAQPEDEADYYCALWYSNHWVFGCGTKLEIK
notes: Heterodimer of chain 1 and chain 2; anti-CD3 Fv disulfide-stabilized (VH G44C / VL G100C); two identical B7H3 sdAbs, both N-terminal to the Fc; also called cs6081; B7H3-targeting constrained CD3 engaging construct
B2: cx5067 (bispecific antibody)
chain 1: EVQLVESGGGLVQPGGSLRLSCAASGFTFSSFGMHWVRQAPGKGLEWVAYISSDSSAIYYADTVKGRFTISRDNAKNSLYLQMNSLRDEDTAVYYCGRGRENIYYGSRLDYWGQGTTVTVSSASTKGPSVFPLAPSSKSTSGGTAALGCLVKDYFPEPVTVSWNSGALTSGVHTFPAVLQSSGLYSLSSVVTVPSSSLGTQTYICNVNHKPSNTKVDKKVEPKSCDKTHTCPPCPAPPVAGPSVFLFPPKPKDTLMISRTPEVTCVVVDVKHEDPEVKFNWYVDGVEVHNAKTKPREEEYNSTYRVVSVLTVLHQDWLNGKEYKCKVSNKALPAPIEKTISKAKGQPREPQVYTLPPSREEMTKNQVSLTCDVSGFYPSDIAVEWESDGQPENNYKTTPPVLDSDGSFFLYSKLTVDKSRWEQGDVFSCSVMHEALHNHYTQKSLSLSPGKGGGGSGGGGSGGGGSEVQLVESGGGLVQPGGSLRLSCAASGFTFSTYAMNWVRQAPGKGLEWVGRIRSKYNNYATYYADSVKGRFTISRDDSKNTLYLQMNSLRAEDTAVYYCVRHGNFGDSYVSWFAYWGQGTLVTVSS
chain 2: EVQLVESGGGLVQPGGSLRLSCAASGFTFSSFGMHWVRQAPGKGLEWVAYISSDSSAIYYADTVKGRFTISRDNAKNSLYLQMNSLRDEDTAVYYCGRGRENIYYGSRLDYWGQGTTVTVSSASTKGPSVFPLAPSSKSTSGGTAALGCLVKDYFPEPVTVSWNSGALTSGVHTFPAVLQSSGLYSLSSVVTVPSSSLGTQTYICNVNHKPSNTKVDKKVEPKSCDKTHTCPPCPAPPVAGPSVFLFPPKPKDTLMISRTPEVTCVVVDVKHEDPEVKFNWYVDGVEVHNAKTKPREEQYNSTYRVVSVLTVLHQDWLNGKEYKCKVSNKALPAPIEKTISKAKGQPREPQVYTLPPSREQMTKNQVKLTCLVKGFYPSDIAVEWESNGQPENNYKTTPPVLDSDGSFFLYSKLTVDKSRWQQGNVFSCSVMHEALHNHYTQKSLSLSPGKGGGGSGGGGSGGGGSQAVVTQEPSLTVSPGGTVTLTCGSSTGAVTTSNYANWVQQKPGKSPRGLIGGTNKRAPGVPARFSGSLLGGKAALTISGAQPEDEADYYCALWYSNHWVFGGGTKLTVL
light: DIQLTQSPSFLSASVGDRVTITCKASQNVDTNVAWYQQKPGKAPKALIYSASYRYSGVPSRFSGSGSGTDFTLTISSLQPEDFATYYCQQYNNYPFTFGQGTKLEIKRTVAAPSVFIFPPSDEQLKSGTASVVCLLNNFYPREAKVQWKVDNALQSGNSQESVTEQDSKDSTYSLSSTLTLSKADYEKHKVYACEVTHQGLSSPVTKSFNRGEC
notes: Three polypeptides; two identical B7H3 Fab domains; anti-CD3 Fv not disulfide-stabilized; also called MAB-FV; B7H3-targeted constrained CD3 engaging construct (Fab format)
B3: cx6083 (bispecific antibody)
chain 1: B2 chain 1 with G510C
chain 2: B2 chain 2 with G568C
light: B2 light
notes: Three polypeptides; B7H3 Fab on both Fc chains; anti-CD3 Fv disulfide-stabilized (VH G44C / VL G100C); also called MAB-dsFV; B7H3-targeted constrained CD3 engaging construct (Fab format)
B4: cx6084 (bispecific antibody, human IgG1, kappa)
chain 1: B2 chain 1 with S496N, G510C, G515A, S543A, N552S, D572N, S590K, S591P
chain 2: B2 chain 2 with K510Q, S511A, P512F, G568C, T573E, V574I, L575K
light: B2 light
notes: as for B3
B5: cx6080 (bispecific antibody)
chain 1: B1 chain 1 with N394S, A413G, A441S, S450N, N470D, K488S, P489S
chain 2: B1 chain 2 with Q408K, A409S, F410P, E471T, I472V, K473L
notes: Heterodimer of chain 1 and chain 2; anti-CD3 Fv disulfide-stabilized (VH G44C / VL G100C); two identical B7H3 sdAbs, both N-terminal to the Fc; also called cs6080; B7H3-targeting constrained CD3 engaging construct

These binders were tested against T2, CD3 on the surface of primary T cells (human, UniProt P07766 23-207) (assay: flow cytometry on isolated primary human T cells).
T2 construct: whole, on cells; CD3 is a multimeric complex (ε, γ, δ, ζ chains) with the TCR; In the reporter assays CD3 stood on Jurkat cells; also called CD3ε
T2 sequence (P07766 23-207): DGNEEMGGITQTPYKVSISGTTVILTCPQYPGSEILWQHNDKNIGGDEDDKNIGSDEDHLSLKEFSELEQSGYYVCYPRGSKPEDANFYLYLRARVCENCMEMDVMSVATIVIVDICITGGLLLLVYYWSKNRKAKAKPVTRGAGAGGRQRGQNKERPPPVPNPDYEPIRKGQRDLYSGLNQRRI
Experimental: (§1) Binding of exemplary multispecific constructs containing an antigen-binding domain directed against B7H3 were assessed for binding to B7H3 positive A375 tumor cells or primary T-cells. The constructs were generated containing antigen-binding domain(s) that were either sdAbs or a FABs, and that were positioned either only N-terminal to the Fc or both N-terminal to the Fc and C-terminal to the anti-CD3 binding domain (see FIGS. 3A and 3C and Table E1.1). Among the various formats of constructs tested included: sdAb-Fc-dsFV-sdAb (cx3072, cx5952) sdAb-Fc-FV (cx6079), sdAb-Fc-dsFV (cs6080, cx6081), MAB-FV (cx5067) and MAB-dsFV (cx6083, cx6084), where the FV represents the anti-CD3 binding domain composed of VH and VL domain pairs and “ds” notes disulfide stabilized via an engineered interdomain disulfide bond.
(§2) Binding was assessed as described above via flow cytometry using a fluorophore-conjugated anti-human Fc secondary antibody. cx3072 bound to A375 cells with high affinity (FIG. 6A) but not to isolated T-cells (FIG. 6B). […] The B7H3-targeting sdAb containing constructs (cx5952, cx6079, cx6080, and cx6081) bound to B7H3 positive cells with similar affinities (depicted in FIG. 6E), with cx5952 displaying higher maximal binding. cx6079, cx6080 and cx6081 contain two identical B7H3-targeting sdAbs, whereas cx5952, and cx3072 contain two distinct B7H3-targeting sdAb that bind different epitopes. The MAB-FV, cx5067, contains two identical B7H3-targeting FAB domains.

| Binder | binding result |
| --- | --- |
| B1 | no binding |
| B2 | no binding |
| B3 | no binding |
| B4 | no binding |
| B5 | no binding |

Each binder was assayed against T1, B7H3 (CD276) (assay: flow cytometry on A375 cells, anti-human Fc secondary).
Experimental: as §1, §2

| Binder | binding result |
| --- | --- |
| B1 | binds |
| B2 | binds |
| B3 | binds |
| B4 | binds |

Each binder was assayed against T1, B7H3 (CD276) (assay: flow cytometry on A375 cells).
Experimental: as §1
Binding was assessed as described above via flow cytometry using a fluorophore-conjugated anti-human Fc secondary antibody. cx3072 bound to A375 cells with high affinity (FIG. 6A) but not to isolated T-cells (FIG. 6B). […]

| Binder | binding result |
| --- | --- |
| B5 | binds |
